Assays:
Test in all cases: Kinase Profiling Assay
Format in all cases: biochemical
BrSK1(h) = target: T1, BrSK1(h) (Homo sapiens, UniProt Q8TDC3); conditions: for % activity: 100 μM
T1 sequence (Q8TDC3 1-778): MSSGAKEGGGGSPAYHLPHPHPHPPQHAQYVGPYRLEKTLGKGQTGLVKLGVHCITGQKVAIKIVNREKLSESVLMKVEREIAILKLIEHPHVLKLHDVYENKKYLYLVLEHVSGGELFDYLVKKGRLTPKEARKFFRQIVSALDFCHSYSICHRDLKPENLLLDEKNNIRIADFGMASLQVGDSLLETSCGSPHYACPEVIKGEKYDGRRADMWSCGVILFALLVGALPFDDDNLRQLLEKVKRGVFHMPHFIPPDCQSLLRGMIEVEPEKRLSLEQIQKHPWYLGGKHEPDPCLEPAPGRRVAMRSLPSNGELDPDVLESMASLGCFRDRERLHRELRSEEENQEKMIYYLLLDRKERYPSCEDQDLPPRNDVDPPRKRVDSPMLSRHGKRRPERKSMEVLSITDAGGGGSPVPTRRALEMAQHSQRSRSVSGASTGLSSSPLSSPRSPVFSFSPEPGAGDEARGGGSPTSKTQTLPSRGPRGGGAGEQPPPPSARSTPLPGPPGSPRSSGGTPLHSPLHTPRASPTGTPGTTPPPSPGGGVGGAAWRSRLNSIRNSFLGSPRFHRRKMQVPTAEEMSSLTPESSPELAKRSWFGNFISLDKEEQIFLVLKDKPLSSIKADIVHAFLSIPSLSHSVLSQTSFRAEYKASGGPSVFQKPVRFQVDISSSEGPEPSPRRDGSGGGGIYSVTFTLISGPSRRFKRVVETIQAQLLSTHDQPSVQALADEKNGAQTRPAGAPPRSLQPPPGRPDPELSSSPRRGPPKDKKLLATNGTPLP

PrKX(h) = target: T2, PrKX(h) (Homo sapiens, UniProt P51817)
T2 sequence (P51817 1-358): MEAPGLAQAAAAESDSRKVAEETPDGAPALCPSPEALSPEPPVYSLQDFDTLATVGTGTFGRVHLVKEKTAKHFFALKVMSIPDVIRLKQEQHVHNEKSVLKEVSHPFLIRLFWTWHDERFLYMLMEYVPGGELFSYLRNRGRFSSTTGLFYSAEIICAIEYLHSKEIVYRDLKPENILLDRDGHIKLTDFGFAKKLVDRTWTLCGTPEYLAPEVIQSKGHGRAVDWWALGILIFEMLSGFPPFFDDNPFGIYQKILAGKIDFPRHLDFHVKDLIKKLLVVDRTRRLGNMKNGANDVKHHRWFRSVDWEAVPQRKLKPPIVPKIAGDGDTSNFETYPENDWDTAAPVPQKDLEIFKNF

MST2(h) = target: T3, MST2(h) (Homo sapiens, UniProt Q13188)
T3 sequence (Q13188 1-491): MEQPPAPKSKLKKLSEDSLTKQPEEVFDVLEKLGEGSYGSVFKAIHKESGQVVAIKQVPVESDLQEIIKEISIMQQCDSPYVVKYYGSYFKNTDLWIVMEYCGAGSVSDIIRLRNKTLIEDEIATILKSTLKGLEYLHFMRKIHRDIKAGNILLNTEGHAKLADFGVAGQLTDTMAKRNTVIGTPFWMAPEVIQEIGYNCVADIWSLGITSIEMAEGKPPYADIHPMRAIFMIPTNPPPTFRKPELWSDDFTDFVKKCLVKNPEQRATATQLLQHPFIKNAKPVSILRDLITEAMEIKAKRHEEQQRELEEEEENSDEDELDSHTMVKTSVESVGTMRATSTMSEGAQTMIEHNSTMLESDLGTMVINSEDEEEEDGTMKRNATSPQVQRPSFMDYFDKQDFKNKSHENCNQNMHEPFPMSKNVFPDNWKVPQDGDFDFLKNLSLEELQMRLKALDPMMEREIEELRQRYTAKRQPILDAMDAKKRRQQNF

IR(h), activated = IR(h), activated (Homo sapiens, UniProt P06213)
PKBα(h) = PKBα(h) (Homo sapiens, UniProt P31749); conditions: 100 μM
PKBα(h), sequence (P31749 whole entry): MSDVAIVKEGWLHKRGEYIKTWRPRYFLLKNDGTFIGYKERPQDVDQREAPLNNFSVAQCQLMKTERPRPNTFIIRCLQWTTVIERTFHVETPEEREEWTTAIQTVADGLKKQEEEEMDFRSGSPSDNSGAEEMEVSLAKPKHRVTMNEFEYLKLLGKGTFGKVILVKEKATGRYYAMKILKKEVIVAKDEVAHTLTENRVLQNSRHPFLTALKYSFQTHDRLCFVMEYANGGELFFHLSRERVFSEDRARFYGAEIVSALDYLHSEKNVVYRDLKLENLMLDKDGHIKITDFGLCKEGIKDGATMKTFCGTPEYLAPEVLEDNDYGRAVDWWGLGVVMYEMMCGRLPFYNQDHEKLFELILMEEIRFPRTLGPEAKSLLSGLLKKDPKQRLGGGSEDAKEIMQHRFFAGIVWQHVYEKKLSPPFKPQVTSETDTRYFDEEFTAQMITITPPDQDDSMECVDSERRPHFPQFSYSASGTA

Ron(h) = Ron(h) (Homo sapiens, UniProt Q04912); conditions: 100 μM
Fyn(h) = Fyn(h) (Homo sapiens, UniProt P06241); conditions: 100 μM
Fyn(h), sequence (P06241 whole entry): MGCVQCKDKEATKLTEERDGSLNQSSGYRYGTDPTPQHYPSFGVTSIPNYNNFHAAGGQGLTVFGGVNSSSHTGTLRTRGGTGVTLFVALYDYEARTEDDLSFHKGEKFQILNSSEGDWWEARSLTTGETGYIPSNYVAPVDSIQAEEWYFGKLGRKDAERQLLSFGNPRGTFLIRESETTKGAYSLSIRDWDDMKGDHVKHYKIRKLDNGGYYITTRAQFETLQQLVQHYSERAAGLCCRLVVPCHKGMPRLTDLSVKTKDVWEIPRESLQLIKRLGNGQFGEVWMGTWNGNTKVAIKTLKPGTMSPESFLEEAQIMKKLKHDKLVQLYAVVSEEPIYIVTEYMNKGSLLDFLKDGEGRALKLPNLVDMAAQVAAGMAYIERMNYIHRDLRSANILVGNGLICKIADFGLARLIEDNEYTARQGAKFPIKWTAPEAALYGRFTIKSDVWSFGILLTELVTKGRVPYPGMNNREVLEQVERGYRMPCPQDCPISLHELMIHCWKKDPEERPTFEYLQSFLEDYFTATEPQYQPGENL

Substance | activity at 100 µM (BrSK1(h)) | activity at 100 µM (PrKX(h)) | activity at 100 µM (MST2(h)) | activity at 100 µM (IR(h), activated) | % activity (PKBα(h)) | % activity (Ron(h)) | % activity (Fyn(h)) | % activity (BrSK1(h)) | % activity (PrKX(h); 100 μM) | % activity (MST2(h); 100 μM) | % activity (IR(h), activated; 100 μM)
H-YARAAARQARAKALARQLGVAA-OH [MMI-0100] | 100% | 84% | 98% | 127% | – | – | – | – | – | – | –
HRRIKAWLKKIKALARQLGVAA (Mammalian) [MMI-0500] | – | – | – | – | 30% | 46% | 83% | 72% | 57% | 2% | 90%
YARAAARQARAKALNRQLGVA (Mammalian) [MMI-0200] | – | – | – | – | 110% | 120% | 75% | 93% | – | – | –
